The record followed here is PMC10630410, “Functional dissection of PRC1 subunits RYBP and YAF2 during neural differentiation of embryonic stem cells” (Nature Communications, 2023).

The test addresses T1, GST-RING1B (mouse, UniProt Q9CQJ4 1-336).
T1 construct: RING1B (Ring1b), the coding region amplified from mouse cDNA, in pGEX-4T; also called pGEX-4T-mRing1b; source: E. coli BL21 (DE3), purified (glutathione agarose); not shown: GST, N-terminal, kept
T1 sequence (looked up): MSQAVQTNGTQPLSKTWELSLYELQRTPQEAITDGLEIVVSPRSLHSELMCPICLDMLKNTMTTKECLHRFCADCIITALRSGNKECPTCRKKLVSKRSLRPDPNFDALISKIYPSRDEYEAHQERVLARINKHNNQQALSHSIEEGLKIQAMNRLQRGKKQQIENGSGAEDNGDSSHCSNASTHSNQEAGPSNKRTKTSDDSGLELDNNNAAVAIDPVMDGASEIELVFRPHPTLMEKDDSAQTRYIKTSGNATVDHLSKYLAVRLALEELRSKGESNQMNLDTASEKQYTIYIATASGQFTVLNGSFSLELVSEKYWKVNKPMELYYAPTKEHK
Kind of test: pull-down; same mixture as a3: purified His-mYAF2-mCherry (0, 100, 300 ng) with 300 ng purified GST-RING1B in the presence of mESC extract, PBS, 4 °C; read out as loss of RYBP from GST-RING1B. As to conditions: both partners purified.

B1: His-mYAF2-mCherry (natural protein, mouse, UniProt Q99LW6 1-179, looked up)
chain: MGDKKSPTRPKRQPKPASDEGYWDCSVCTFRNSAEAFKCMMCDVRKGTSTRKPRPVSQLVAQQVTQQFVPPTQSKKEKKDRVEKDKSEKEAASKKNCHKKTRPRLKNVDRSSAQHLEVTVGDLTVIITDFKEKAKSAPASSAAGDQHSQGSCSSDSTERGVSRSSSPRGEASSLNGESH
notes: YAF2 (Yaf2), the coding region amplified from mouse cDNA, in pET-28a; also called His-YAF2; pET-28a-mYaf2-mCherry; source: E. coli BL21 (DE3), purified (Ni-NTA); not shown: His6, N-terminal, kept
As for B1, the binding result is reported as “binds”.
